Molecular target: T1, NaPi2b expressed on HCC-78 cells (Homo sapiens, UniProt O95436)
T1 construct: endogenous in cells; host or cells: HCC-78
T1 sequence (O95436 1-690): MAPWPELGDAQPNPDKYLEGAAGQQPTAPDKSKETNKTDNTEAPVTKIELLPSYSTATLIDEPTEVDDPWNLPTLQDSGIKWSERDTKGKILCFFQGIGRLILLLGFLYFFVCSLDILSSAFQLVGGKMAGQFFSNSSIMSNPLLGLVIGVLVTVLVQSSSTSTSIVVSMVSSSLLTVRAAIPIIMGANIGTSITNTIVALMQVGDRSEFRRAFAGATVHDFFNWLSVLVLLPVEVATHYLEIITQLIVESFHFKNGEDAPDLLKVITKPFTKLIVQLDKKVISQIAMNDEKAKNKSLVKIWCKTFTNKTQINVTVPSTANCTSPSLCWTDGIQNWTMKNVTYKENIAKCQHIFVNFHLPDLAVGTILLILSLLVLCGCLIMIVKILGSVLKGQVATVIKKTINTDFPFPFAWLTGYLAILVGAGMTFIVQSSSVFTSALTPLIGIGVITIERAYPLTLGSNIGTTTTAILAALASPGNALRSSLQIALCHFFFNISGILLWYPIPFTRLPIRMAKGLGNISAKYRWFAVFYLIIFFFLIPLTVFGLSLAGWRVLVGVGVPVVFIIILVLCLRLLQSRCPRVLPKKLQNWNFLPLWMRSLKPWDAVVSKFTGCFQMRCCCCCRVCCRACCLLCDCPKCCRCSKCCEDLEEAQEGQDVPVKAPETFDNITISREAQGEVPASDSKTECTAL
Assay: Cellular binding of antibody and ADCs to HCC-78 cells by flow cytometry (Example 14)
Method: Briefly, HEK293-6e cells were transfected for ˜24 hours to transiently express human NaPi2b, cynomolgus or mouse NaPi2b, at 1 μg of DNA per 1 million cells. Following transfection, 50,000 cells per well were seeded in V-bottom 96-well plates and incubated with 200 nM of primary antibody for 18-24 hours at 4° C. to prevent internalization. Post-incubation, cells were washed and stained with anti-Human IgG Fc AF647 conjugate (Jackson Immuno Research Labs, West Grove, PA, Cat. No. 109-605-098, Lot. No. 124868) at 4° C. for 1 hour. Following staining and washing, fluorescence was detected by flow cytometry on BD LSRFortessa™ Cell Analyzer (BD Biosciences, Franklin Lake, NJ) with 10,000 minimum events collected per well. The AF647/APC-A GeoMean (fluorescence signal geometric mean, proportional to anti-Human AF647 binding) was calculated for the live singlet cell population for each primary antibody using FlowJo™ v8 software (BD Biosciences, Franklin Lake, NJ). The Bmax and Kd of each primary antibody were calculated using GraphPad Prism Version 9 (GraphPad Software, San Diego, CA)
The ability of ADCs to bind to cells expressing NaPi2b was assessed. […] Binding to endogenous high NaPi2b-expressing cell lines IGROV-1 and HCC-78 was assessed by flow cytometry according to methods described in Example 5.

## v22277: anti-RSV antibody palivizumab, negative control; has a heterodimeric Fc [reference compound]
  Binding to HCC-78 cells, in words: did not bind

From patent US20250277030A1, “ANTI-NAPI2B ANTIBODIES AND METHODS OF USE” (Zymeworks BC Inc., priority 2022, published 2025)
